# Data reported in patent publication US20260327578A1, “TRANSGLUTAMINASES AND USES THEREOF” (CURIE CO. INC., priority 2023, published 2026).
# Substitutions are numbered along the chain they refer to. In names and notes the source's numbering stands.
# B1: S1: Tgase variant S2P Q50H relative to SEQ ID NO: 2 (protein, UniProt P81453 77-407, looked up, variant S2P Q50H)
# Protein-glutamine …: DPDDRVTPPAEPLDRMPDPYRPSYGRAETVVNNYIRKWQQVYSHRDGRKHQMTEEQREWLSYGCVGVTWVNSGQYPTNRLAFASFDEDRFKNELKNGRPRSGETRAEFEGRVAKESFDEEKGFQRAREVASVMNRALENAHDESAYLDNLKKELANGNDALRNEDARSPFYSALRNTPSFKERNGGNHDPSRMKAVIYSKHFWSGQDRSSSADKRKYGDPDAFRPAPGTGLVDMSRDRNIPRSPTSPGEGFVNFDYGWFGAQTEADADKTVWTHGNHYHAPNGSLGAMHVYESKFRNWSEGYSDFDRGAYVITFIPKSWNTAPDKVKQGWP
# B2: S4: Tgase variant S2P Q51P relative to SEQ ID NO: 2 (protein, UniProt P81453 77-407, looked up, variant S2P Q51P)
# Protein-glutamine …: B1 Protein-glutamine … with H50Q, Q51P
# B3: S3: Tgase variant S2P Q50A relative to SEQ ID NO: 2 (protein, UniProt P81453 77-407, looked up, variant S2P Q50A)
# Protein-glutamine …: B1 Protein-glutamine … with H50A
# B4: S2: Tgase variant S2P Q74V relative to SEQ ID NO: 2 (protein, UniProt P81453 77-407, looked up, variant S2P Q74V)
# Protein-glutamine …: B1 Protein-glutamine … with H50Q, Q74V
# B5: A6: Tgase variant S2P D14W Q50S Q74A K91H Q124L K151R K152R A166W N282M G283A S299V relative to SEQ ID NO: 2 (protein, UniProt P81453 77-407, looked up, variant S2P D14W Q50S Q74A K91H Q124L K151R K152R A166W N282M G283A S299V)
# Protein-glutamine …: DPDDRVTPPAEPLWRMPDPYRPSYGRAETVVNNYIRKWQQVYSHRDGRKSQMTEEQREWLSYGCVGVTWVNSGAYPTNRLAFASFDEDRFHNELKNGRPRSGETRAEFEGRVAKESFDEEKGFLRAREVASVMNRALENAHDESAYLDNLRRELANGNDALRNEDWRSPFYSALRNTPSFKERNGGNHDPSRMKAVIYSKHFWSGQDRSSSADKRKYGDPDAFRPAPGTGLVDMSRDRNIPRSPTSPGEGFVNFDYGWFGAQTEADADKTVWTHGNHYHAPMASLGAMHVYESKFRNWVEGYSDFDRGAYVITFIPKSWNTAPDKVKQGWP
# B6: A10: Tgase variant S2P A10T Q50S Q74A K91H Q124L S131I K151R K152R N282M G283A S299V relative to SEQ ID NO: 2 (protein, UniProt P81453 77-407, looked up, variant S2P A10T Q50S Q74A K91H Q124L S131I K151R K152R N282M G283A S299V)
# Protein-glutamine …: B5 Protein-glutamine … with A10T, W14D, S131I, W166A
# B7: A11: Tgase variant S2P D14W Q50S Q74A K91H Q124L S131I K151R K152R N282M G283A S299V relative to SEQ ID NO: 2 (protein, UniProt P81453 77-407, looked up, variant S2P D14W Q50S Q74A K91H Q124L S131I K151R K152R N282M G283A S299V)
# Protein-glutamine …: B5 Protein-glutamine … with S131I, W166A
# B8: A13: Tgase variant S2P Q50S Q51E Q74A K91H Q124L K151R K152R F170I N282M G283A H289I S299V relative to SEQ ID NO: 2 (protein, UniProt P81453 77-407, looked up, variant S2P Q50S Q51E Q74A K91H Q124L K151R K152R F170I N282M G283A H289I S299V)
# Protein-glutamine …: B5 Protein-glutamine … with W14D, Q51E, W166A, F170I, H289I
# B9: A14: Tgase variant S2P Q50S Q51E Q74A K91H Q124L Y146F K151R K152R N282M G283A H289I S299V relative to SEQ ID NO: 2 (protein, UniProt P81453 77-407, looked up, variant S2P Q50S Q51E Q74A K91H Q124L Y146F K151R K152R N282M G283A H289I S299V)
# Protein-glutamine …: B5 Protein-glutamine … with W14D, Q51E, Y146F, W166A, H289I
# B10: A12: Tgase variant S2P R15T Q50S Q74A K91H Q124L K151R K152R N282M G283A H289I relative to SEQ ID NO: 2 (protein, UniProt P81453 77-407, looked up, variant S2P R15T Q50S Q74A K91H Q124L K151R K152R N282M G283A H289I)
# Protein-glutamine …: B5 Protein-glutamine … with W14D, R15T, W166A, H289I, V299S
# B11: A8: Tgase variant S2P D14W Q50S Q74A K91H Q124L K151R K152R N282M G283A S299A relative to SEQ ID NO: 2 (protein, UniProt P81453 77-407, looked up, variant S2P D14W Q50S Q74A K91H Q124L K151R K152R N282M G283A S299A)
# Protein-glutamine …: B5 Protein-glutamine … with W166A, V299A
# B12: A5: Tgase variant S2P Q50S Q74A K91H Q124L K151R K152R N282D S284A H289I S299E relative to SEQ ID NO: 2 (protein, UniProt P81453 77-407, looked up, variant S2P Q50S Q74A K91H Q124L K151R K152R N282D S284A H289I S299E)
# Protein-glutamine …: B5 Protein-glutamine … with W14D, W166A, M282D, A283G, S284A, H289I, V299E
# B13: A7: Tgase variant S2P Q50S Q74A K91H Q124L K151R K152R N282M G283A S299V relative to SEQ ID NO: 2 (protein, UniProt P81453 77-407, looked up, variant S2P Q50S Q74A K91H Q124L K151R K152R N282M G283A S299V)
# Protein-glutamine …: B5 Protein-glutamine … with W14D, W166A
# B14: A4: Tgase variant S2P Q50S Q74A K91H Q124L K151R K152R N282Q S284A H289I relative to SEQ ID NO: 2 (protein, UniProt P81453 77-407, looked up, variant S2P Q50S Q74A K91H Q124L K151R K152R N282Q S284A H289I)
# Protein-glutamine …: B5 Protein-glutamine … with W14D, W166A, M282Q, A283G, S284A, H289I, V299S
# B15: A15: Tgase variant S2P Q50S Q74A K91H K95E Q124L K151R K152R N282M G283A relative to SEQ ID NO: 2 (protein, UniProt P81453 77-407, looked up, variant S2P Q50S Q74A K91H K95E Q124L K151R K152R N282M G283A)
# Protein-glutamine …: B5 Protein-glutamine … with W14D, K95E, W166A, V299S
# B16: A9: Tgase variant S2P Q50S Q74A K91H K95E Q124L K151R K152R N282M G283A S299V relative to SEQ ID NO: 2 (protein, UniProt P81453 77-407, looked up, variant S2P Q50S Q74A K91H K95E Q124L K151R K152R N282M G283A S299V)
# Protein-glutamine …: B5 Protein-glutamine … with W14D, K95E, W166A
# System: N,N-dimethylcasein
# Assay: Chemostability: residual Tgase activity after 24 hour incubation at 20-30 °C, normalized to wild-type
# Type: biochemical
# Settings: improvement relative to wild-type mature Tgase (SEQ ID NO: 2); residual activity after 24 h at 20-30 °C in cell-free extract
# Experimental: Table 5 depicts variants of Streptomyces mobaraensis Tgase and improvement to stability relative to wild-type mature Tgase (SEQ ID NO. 2) as determined in Example 3. Numbering of amino acid positions is in reference to the mature S. mobaraensis Tgase sequence depicted in SEQ ID NO. 2. A “+” indicates an improvement between 1.2 and 2-fold. A “++” indicates an improvement greater than 2-fold.
# To evaluate chemostability, Tgase samples in cell-free extract were assayed for activity, using the assay described in Example 4B, immediately after expression and again following a 24 hour incubation at 20-30° C. Mature Tgase variant residual activity was normalized to the residual activity of the wild-type and results are depicted in Table 5.
# (§1) Protein functionalization by Tgase variants was determined by the fluorogenic labeling of casein using monodansylcadaverine (e.g., a commercially available kit such as the Transglutaminase Fluorogenic Activity Assay Kit, T036, Zedira, Germany). Tgase activity was monitored by measuring fluorescence (excitation wavelength 332 nm; emission wavelength 500 nm) using a BioTek Synergy H1 microplate reader. Transglutaminase-catalyzed covalent coupling (crosslinking) of monodansylcadaverine with N,N-dimethylcasein produces a product that causes a shift in intensity and wavelength of fluorescence of the dansyl group now linked to the casein. The relative transglutaminase activity is shown by increase of fluorescence intensity over time. Enzyme variant loading was optimized based on expression levels, ensuring enzyme was the rate limiting factor. Briefly, cell-free reactions (set up as described in Example 2A) were first diluted 10-fold using phosphate buffer, pH 7.4, and a 5 microliter aliquot was analyzed.
row,Molecule,Stability
1,B1,++ (an improvement greater than 2-fold)
2,B2,+ (an improvement between 1.2 and 2-fold)
3,B3,++ (an improvement greater than 2-fold)
4,B4,++ (an improvement greater than 2-fold)

# System: N,N-dimethylcasein
# Assay: Productivity: total product formed after 24 hours (protein functionalization assay)
# Type: biochemical
# Parameters: key: −: a reduction in activity; +: an improvement between 1.2 and 2-fold; ++: an improvement between 2 and 5-fold; +++: an improvement greater than 5-fold
# Settings: improvement relative to wild-type Tgase (SEQ ID NO: 2); total product after 24 h
# Experimental: (§2) Enzymatic “productivity” is a measure of product formation or substrate disappearance over time, at a prescribed temperature under specified reaction conditions. It is the measure both the durability and reaction yield of the enzyme variant. In this instance, productivity is defined as total product formed over 24-hours at a constant substrate concentration when the enzyme is the rate limiting factor. The time is defined as 24 hours, which represents approaching or surpassing burnout, denaturation, or self-reaction of the enzyme variant. In other words, variants with higher productivity deliver a higher product yield in 24-hours than variants with lower productivity produce in the same period of time. “Rate” refers to the initial rate for an enzymatic reaction, at a prescribed temperature under specified reaction conditions. The enzyme produces product at an initial rate that is approximately linear for a short period after the start of the reaction. When concentrations of enzyme and substrate are the same across the sample set, initial rates between enzyme variants can be compared. In this instance, the linear range for production of product occurs in one hour. Enzyme variants with faster initial rates deliver a higher product yield in one hour than variants with slower initial rates produce at the same time-period. In some cases, improvements to initial rates also deliver a more productive variant. In some cases, improvements to initial rates result in faster decay of the enzyme variant reducing overall enzymatic productivity. Productivity and rate may be assessed as described in Example 2.
# (§3) Table 6 depicts variants of Streptomyces mobaraensis Tgase and improvement to productivity and/or rate relative to wild-type Tgase (SEQ ID NO. 2) as determined in Example 3. Numbering of amino acid positions is in reference to the mature S. mobaraensis Tgase sequence depicted in SEQ ID NO. 2. A “−” indicates a reduction in activity. A “+” indicates an improvement between 1.2 and 2-fold. A “++” indicates an improvement between 2 and 5-fold. A “+++” indicates an improvement greater than 5-fold.
# To evaluate productivity, total product formed was measured after 24-hours of incubation, using the assay described in Example 4B. The time is defined as 24 hours which represents approaching or surpassing burnout, denaturation, or self-reaction of the enzyme variant.
# as §1
row,Molecule,Productivity
1,B5,++ (an improvement between 2 and 5-fold)
2,B6,+ (an improvement between 1.2 and 2-fold)
3,B7,+ (an improvement between 1.2 and 2-fold)
4,B8,+ (an improvement between 1.2 and 2-fold)
5,B9,+ (an improvement between 1.2 and 2-fold)
6,B10,+ (an improvement between 1.2 and 2-fold)
7,B11,+ (an improvement between 1.2 and 2-fold)
8,B12,+ (an improvement between 1.2 and 2-fold)
9,B13,+ (an improvement between 1.2 and 2-fold)
10,B14,+ (an improvement between 1.2 and 2-fold)
11,B15,−
12,B16,+ (an improvement between 1.2 and 2-fold)

# System: N,N-dimethylcasein
# Assay: Rate of product formation over 60 minutes (protein functionalization assay)
# Type: biochemical
# Parameters: key: −: a reduction in activity; +: an improvement between 1.2 and 2-fold; ++: an improvement between 2 and 5-fold; +++: an improvement greater than 5-fold
# Settings: improvement relative to wild-type Tgase (SEQ ID NO: 2); initial rate over 60 min
# Experimental: as §2, §3
# Rate was assessed by measuring the rate of product formation over 60 minutes of incubation using a kinetic method to take scans every 60 seconds to determine product formation, using reaction conditions as described in Example 4B. The enzyme produces product at an initial rate that is approximately linear for the first one hour of the reaction. The concentrations of enzyme and substrate are the same across the sample set for each enzyme variant. Enzyme variants with faster initial rates deliver a higher product yield in one hour than variants with slower initial rates produce at the same time-period.
# as §1
row,Molecule,Rate
1,B5,+++ (an improvement greater than 5-fold)
2,B6,+ (an improvement between 1.2 and 2-fold)
3,B7,+ (an improvement between 1.2 and 2-fold)
4,B8,+ (an improvement between 1.2 and 2-fold)
5,B9,−
6,B10,+ (an improvement between 1.2 and 2-fold)
7,B11,++ (an improvement between 2 and 5-fold)
8,B12,−
9,B13,+ (an improvement between 1.2 and 2-fold)
10,B14,−
11,B15,+ (an improvement between 1.2 and 2-fold)
12,B16,+ (an improvement between 1.2 and 2-fold)
